Literature values in PMC10342495.

Target: IL-18 (Homo sapiens) (UniProt Q14116)
Sequence (Q14116 37-193): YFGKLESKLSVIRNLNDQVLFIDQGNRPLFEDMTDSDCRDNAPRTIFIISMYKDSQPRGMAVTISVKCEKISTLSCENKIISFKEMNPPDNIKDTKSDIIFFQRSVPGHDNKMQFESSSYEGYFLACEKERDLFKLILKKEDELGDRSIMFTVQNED

IL-18BP, sequence (O95998 31-194): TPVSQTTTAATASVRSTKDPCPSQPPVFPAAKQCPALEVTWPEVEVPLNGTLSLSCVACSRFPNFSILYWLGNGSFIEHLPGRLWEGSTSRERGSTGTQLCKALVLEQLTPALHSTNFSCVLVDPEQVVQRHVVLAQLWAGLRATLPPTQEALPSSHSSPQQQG

## IL-18BP (from UniProt O95998)
  Kd: 0.4 nM
